According to US20190225691A1 (SHANGHAI HENLIUS BIOTECH, published 2019):
One block for each binder: values may come before it.

Assays:
[1] = molecular target: T1, human PD-L1 ECD-His (human, UniProt Q9NZQ7 19-238); assay: BLI, ratio of KD to ref-1
T1 construct: extracellular domain; Analyte in all SPR and BLI runs; also called hPD-L1_ECD-His; hPD-L1 ECD-His; not shown: His tag
Description: (§1) Briefly, black 96-well plate was prepared with columns containing 200 μL/well of reagents required for determination of affinity. In general, Octet SA sensors were first placed in wells containing 1×Kinetics Buffer (PBS, 0.1% BSA, 0.02% Tween-20, pH 7.4) for 180 seconds to establish a baseline. […] Sensors were then regenerated by 3×5 second incubations in Regeneration Buffer (10 mM Glycine, pH 1.5) followed by a 5 second incubation in 1×Kinetics Buffer each time. Regeneration was repeated before measurement of each association/dissociation cycle. Sensors were then placed in fresh 1×Kinetics Buffer for 180 seconds to establish a baseline. Association was then measured by incubating the sensors for 5 minutes in wells containing hPD-L1-His followed by transferring to wells containing 1×Kinetics Buffer for 10 minutes to measure dissociation. Kinetics (ka, kd, and […] were measured by global fitting four association/dissociation cycles of data obtained from 1:3 serial dilutions of hPD-L1-His from 38.28 nM to 1.42 nM (one association/dissociation cycle for one concentration) with a 1:1 Langmuir binding model. All data were analyzed with Octet Data Analysis Software v.9.0 and representative of two independent experiments performed in duplicate.
(§2) All the data are representative of two independent experiments performed in duplicate.

[2] = molecular target: T1, human PD-L1 ECD-His; assay: BLI, ratio of KD to parental PL3#7-43
Description: (§3) Briefly, black 96-well plate was prepared with columns containing 200 μL/well of reagents required for determination of affinity. In general, Octet anti-human-Fc sensors were first placed in wells containing 1×Kinetics Buffer (PBS, 0.1% BSA, 0.02% Tween-20, pH 7.4) for 180 seconds to establish a baseline. Sensors were then transferred to wells containing […] anti-PD-L1 variants for 600 seconds to load the anti-human-Fc tips. Sensors were then placed in fresh 1×Kinetics Buffer for 180 seconds to establish a baseline. Association was then measured by incubating the sensors for 3 minutes in wells containing hPD-L1-His followed by transferring to wells containing 1×Kinetics Buffer for 10 minutes to measure dissociation. Sensors were then regenerated by 3X5 second incubations in Regeneration Buffer (10 mM Glycine, pH 1.5) followed by a 5 second incubation in 1×Kinetics Buffer each time. Regeneration was repeated before measurement of each association/dissociation cycle. […] All data were analyzed with Octet Data Analysis Software v.9.0 and representative of two independent experiments performed in duplicate.
as §2

[3] = molecular target: T1, human PD-L1 ECD-His; assay: BLI Octet RED96, biotinylated antibody on SA sensor, hPD-L1-His analyte, 1:1 fit
Description: as §1, §2

[4] = molecular target: T1, human PD-L1 ECD-His; assay: BLI Octet RED96, antibody on AHC anti-human-Fc sensor, hPD-L1-His analyte, 1:1 fit
Description: as §3, §2

[5] = molecular target: T2, human PD-L1 on cells (PHA-activated human T cells); PD-L1-transfected CHO-S cells; A375 melanoma cells; … (human, UniProt Q9NZQ7 19-290); assay: flow cytometry on PD-L1 transfected CHO-S cells, anti-human IgG Fc-FITC, MFI
T2 construct: whole, on cells; also called PD-L1 expressing T cells; PD-L1 expressing CHO-S cells
T2 sequence (Q9NZQ7 19-290): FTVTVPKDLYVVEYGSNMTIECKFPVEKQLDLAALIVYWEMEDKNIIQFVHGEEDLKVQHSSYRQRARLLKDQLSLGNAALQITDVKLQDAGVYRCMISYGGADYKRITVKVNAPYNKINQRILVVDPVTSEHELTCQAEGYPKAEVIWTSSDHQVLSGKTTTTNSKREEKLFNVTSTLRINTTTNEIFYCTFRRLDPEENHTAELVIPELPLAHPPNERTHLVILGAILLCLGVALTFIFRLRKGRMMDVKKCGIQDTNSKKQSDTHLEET
Description: Binding of tested de-glycosylated variants was assessed by incubating the PD-L1 expressing CHO-S cells (2E5 cells/well) with the serial-diluted antibodies in FACS buffer (PBS with 1% FBS) at 4° C. for 30 minutes. These cells were washed with flow buffer and then stained with anti-human IgG Fc-FITC (1:500×) at 4° C. for 30 minutes to detect antibody binding on the cell surface. Flow cytometric analyses were performed using CytoFlex (Beckman Coulter Inc.).

[6] = molecular target: T3, mouse PD-L1 on B16-F10 melanoma cells (mouse, UniProt Q9EP73 19-290); assay: flow cytometry on mouse PD-L1 expressing B16-F10 melanoma cells, FITC-labeled anti-human IgG Fcγ, MFI
T3 construct: whole, on cells
T3 sequence (Q9EP73 19-290): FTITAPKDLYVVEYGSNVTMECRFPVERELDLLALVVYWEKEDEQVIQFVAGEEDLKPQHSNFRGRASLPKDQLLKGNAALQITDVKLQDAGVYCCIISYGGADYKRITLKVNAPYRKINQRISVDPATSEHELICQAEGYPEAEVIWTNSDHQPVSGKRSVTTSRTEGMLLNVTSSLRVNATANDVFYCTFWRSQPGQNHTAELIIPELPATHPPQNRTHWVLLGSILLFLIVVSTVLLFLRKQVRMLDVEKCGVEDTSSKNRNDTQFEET

[7] = molecular target: T2, human PD-L1 on cells (PHA-activated …); assay: flow cytometry on A375 human melanoma cells, biotin-labeled anti-human IgG Fcγ and streptavidin-PE, MFI
[8] = molecular target: T2, human PD-L1 on cells (PHA-activated …); assay: flow cytometry on NCI-H292 human NSCLC cells, biotin-labeled anti-human IgG Fcγ and streptavidin-PE, MFI
[9] = molecular target: T2, human PD-L1 on cells (PHA-activated …); assay: flow cytometry on PHA-activated human T cells, biotin-labeled anti-human IgG Fcγ and streptavidin-PE, MFI
[10] = molecular target: T4, recombinant cynomolgus monkey PD-L1_ECD Fc-fusion protein (Sino Biological Inc.) (cynomolgus monkey, UniProt G7PSE7 19-238); assay: ELISA: cynomolgus monkey PD-L1_ECD/Fc coated (9 ng/well), peroxidase-labeled goat anti-human IgG F(ab)'2, TMB, OD450
T4 construct: Bought
T4 sequence (G7PSE7 entry or part of it limits assumed): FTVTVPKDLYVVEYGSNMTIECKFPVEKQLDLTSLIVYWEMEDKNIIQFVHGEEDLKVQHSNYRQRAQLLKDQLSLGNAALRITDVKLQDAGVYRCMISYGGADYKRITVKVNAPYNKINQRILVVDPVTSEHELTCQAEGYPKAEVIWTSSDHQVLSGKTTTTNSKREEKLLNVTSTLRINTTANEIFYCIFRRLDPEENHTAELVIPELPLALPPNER
Description: The recombinant cynomolgus monkey PD-L1_ECD Fc-fusion proteins were purchased from Sino Biological Inc. PD-L1_ECD/Fc (9 ng per well) were immobilized onto 96-well assay plat by incubating overnight at 4° C. Nonspecific binding sites were blocked using 5% skim milk in PBS for one hour at room temperature. After washing plates three times with PBST, indicated concentrations of anti-PD-L1 antibodies and HLX01 (negative control) were incubated with the immobilized proteins for one hour at room temperature. The plates were washed three times with PBST and then incubated for one hour at room temperature with peroxidase-labeled goat anti-human IgG F(ab)′2 (Jackson ImmunoResearch Laboratories) diluted 1/10,000 in PBS. After washing, plates were developed using TMB (eBioscience). The absorbance was read at the wavelength of 450 nm by Varioskan LUX microplate reader (Thermo Scientific).
HLX01 (anti-CD20 mAb) was used as the negative control.

[11] = molecular target: T1, human PD-L1 ECD-His; assay: Fab ELISA screen after panning on hPD-L1-His; coated antigen not named

T1 sequence (Q9NZQ7 19-238): as the sequence (G7PSE7 entry or part of it limits assumed) above, with T33A, S34A, N62S, Q68R, R82Q, L173F, A185T, I192T, L215H counted along it

Improvement over ref-1 [1]: 7.86 fold | Fold Difference (against parental variant) [2]: 1 fold | Kd [3]: 0.313 nM | koff [3]: 0.000103 s⁻¹ | kon [3]: 330000 M⁻¹ s⁻¹ | Kd [4]: 0.345 nM | koff [4]: 0.000212 s⁻¹ | kon [4]: 628000 M⁻¹ s⁻¹ | EC50 (read off the curve) [5]: ~200 ng/mL | EC50 (read off the curve) [6]: ~5 ng/mL | EC50 (read off the curve) [7]: ~2 ng/mL | EC50 (read off the curve) [8]: ~10 ng/mL | EC50 (read off the curve) [9]: ~8 ng/mL | EC50 (read off the curve) [10]: ~40 ng/mL
B1: PL3#7-43 mtIgG1 (antibody, V domains shown)
VH: QVQLVQSGAEVKKPGSSVKVSCKASGGTFSSYPISWVRQAPGQGLEWMGRIIPILGIANYAQKFQGRVTITADKSTSTAYMELSSLRSEDTAVYYCARSRPGYAFGAFDIWGQGTLVTVSS
VL: QSVVTQPPPVSGAPGQRVTISCTGSSSNVGAGYDVHWYQQLPGTAPKLLIYGNSNRSSGVPDRFSGSKSGTSASLAITGLQAEDEADYYCQTYDSSGSARVVFGGGTKLTVLG
modifications: Antibody was biotinylated (NHS-PEG4-biotin, sites not specified) for the Octet assay of Table 11.
notes: N297A mutant human IgG1; also called PL3#7-43 parental mtIgG1

binding result [11]: binds
B2: PL3#7-19 Fab (Fab, V domains shown)
VH: QVQLVQSGAEVKKPGSSVKVSCKASGGTFSSYPISWVRQAPGQGLEWMGRIIPILGIANYAQKFQGRVTITADKSTSTAYMELSSLRSEDTAVYYCARSRDGYAFGAFDVWGQGTLVTVSS
VL: QSVVTQPPPVSGAPGQRVTISCTGSSSNIGGGYDVHWYQQLPGTAPKLLIYGNSTRPSGVPDRFSGSKSGTSASLAITGLQAEDEADYYCQTYDSSLSATVVFGGGTKLTVL

binding result [11]: binds
B3: PL3#7-54 Fab (Fab, V domains shown)
VH: QVQLVQSGAEVKKPGSSVKVSCKASGGTFSSYPISWVRQAPGQGLEWMGRIIPILGIADYAQKFQGRVTITADKSTSTAYMELSSLRSEDTAVYYCARSRPGYAFGAFDIWGQGTLVTVSS
VL: QSVVTQPPPVSGAPGQRVTISCTGSSSNIGQGYDVHWYQQLPGTAPKLLIYANSNRPSGVPDRFSGSKSGTSASLAITGLQAEDEADYYCQTYDSSLSARVVFGGGTKLTVL

binding result [11]: binds
B4: PL3#7-43 Fab (Fab, V domains shown)
VH: QVQLVQSGAEVKKPGSSVKVSCKASGGTFSSYPISWVRQAPGQGLEWMGRIIPILGIANYAQKFQGRVTITADKSTSTAYMELSSLRSEDTAVYYCARSRPGYAFGAFDIWGQGTLVTVSS
VL: QSVVTQPPPVSGAPGQRVTISCTGSSSNVGAGYDVHWYQQLPGTAPKLLIYGNSNRSSGVPDRFSGSKSGTSASLAITGLQAEDEADYYCQTYDSSGSARVVFGGGTKLTVL
